This note sets out measurements from patent US20220143136A1, “USE OF ANNEXINS IN PREVENTING AND TREATING MUSCLE MEMBRANE INJURY” (NORTHWESTERN UNIVERSITY, priority 2018, published 2022).

One assay relates to wildtype myofibers. In words: Laser injury FM 4-64 uptake, E coli versus HEK cell produced rANXA6. It is filed as cell-based, mouse. Particulars: 13 μg/ml and 130 μg/ml; vs BSA control. On the procedure:
Myofiber isolation, laser injury, and dye measurement. For recombinant myofibers studies, myofibers were isolated from wildtype mice. Myofibers were incubated in Ringer's media with 13 μg/ml or 130 μg/ml human recombinant annexin, E coli or HEK cell produced. Bovine serum albumin (BSA) was used as a negative control. FM 4-64 ([…]) was added to the myofibers just prior to imaging. Fibers were subjected to laser-induced damage at room temperature using the Nikon A1R-MP multiphoton microscope. Imaging was performed using a 25×1.1 NA objective directed by the NIS-Elements AR imaging software. FM 4-64 was excited using a 920 nm wavelength laser and emission wavelengths of 575 nm and 629 nm were collected, respectively. To induce laser damage on isolated myofibers, a diffraction limited spot (diameter approximately 410 nm) was created on the lateral membrane of the myofiber using a 920 nm wavelength laser at 10-15% laser power for 1 second. FM 4-64 area was measured using FIJI from a single slice near the middle of the z-stack. Myofiber quality control was based on a number of characteristics including using adherent myofibers with intact sarcomere structure. Myofibers appeared devoid of tears or ruptures induced during the isolation protocol. The region of the myofiber selected for damage was linear and not located on a nucleus or neuromuscular junction.
Statistical analyses were performed with Prism (Graphpad, La Jolla, Calif.). Comparisons relied on ANOVA (1way ANOVA for 1 variable). P-values of less than or equal to 0.05 were considered significant. Error bars represent +/−standard error of the mean (SEM).

For the next assay, the system named is Anxa6^em1(GFP) myofibers. In words: Laser injury of Anxa6em1(GFP) myofibers pretreated with recombinant annexin A6. It is filed as cell-based, mouse. Particulars: 10-40 μg/ml recombinant protein pretreatment vs control. The protocol:
Myofiber isolation. Flexor digitorum brevis (FDB) fibers were isolated with methods that were described previously in (Demonbreun and McNally, 2015; Demonbreun et al., 2016b; DiFranco et al., 2009). Briefly, fibers were dissociated in 0.2% BSA plus collagenase type II (Cat #17101, Thermo Fisher Scientific, Waltham, Mass.) for 60 minutes at 37 degrees in 10% CO2. Fibers were then moved to Ringers solution and placed on MatTek confocal microscopy dishes (Cat #P35G-1.5-14-C, MatTek, Ashland Mass.).
Multiphoton laser injury and imaging. Isolated fibers were subjected to laser-induced damage at room temperature using the Nikon A1R-MP multiphoton microscope. Imaging was performed using a 25×1.1 NA objective directed by the NIS-Elements AR imaging software. Green fluorescence protein (GFP) and FM 4-64 were excited using a 920 nm wavelength laser and emission wavelengths of 575 nm and 629 nm were collected respectively. […] Fluorescence intensity and cap area were measured using Fiji (NIH).
For recombinant protein studies, myofibers were isolated from mice as described above. […] Cap size was assessed from acquired images in FIJI. […] Images were acquired and quantitated as described above. FM 4-64 fluorescence at endpoint was measured using FIJI.

“Also recorded” adds a separate entry of the source.

B1: recombinant annexin A6: recombinant human annexin A6 protein with C-terminal HIS tag (5186-A6-050, R&D systems); mouse protein from Northwestern core in one cohort (protein, UniProt P08133 2-673, looked up)
Annexin A6: AKPAQGAKYRGSIHDFPGFDPNQDAEALYTAMKGFGSDKEAILDIITSRSNRQRQEVCQSYKSLYGKDLIADLKYELTGKFERLIVGLMRPPAYCDAKEIKDAISGIGTDEKCLIEILASRTNEQMHQLVAAYKDAYERDLEADIIGDTSGHFQKMLVVLLQGTREEDDVVSEDLVQQDVQDLYEAGELKWGTDEAQFIYILGNRSKQHLRLVFDEYLKTTGKPIEASIRGELSGDFEKLMLAVVKCIRSTPEYFAERLFKAMKGLGTRDNTLIRIMVSRSELDMLDIREIFRTKYEKSLYSMIKNDTSGEYKKTLLKLSGGDDDAAGQFFPEAAQVAYQMWELSAVARVELKGTVRPANDFNPDADAKALRKAMKGLGTDEDTIIDIITHRSNVQRQQIRQTFKSHFGRDLMTDLKSEISGDLARLILGLMMPPAHYDAKQLKKAMEGAGTDEKALIEILATRTNAEIRAINEAYKEDYHKSLEDALSSDTSGHFRRILISLATGHREEGGENLDQAREDAQVAAEILEIADTPSGDKTSLETRFMTILCTRSYPHLRRVFQEFIKMTNYDVEHTIKKEMSGDVRDAFVAIVQSVKNKPLFFADKLYKSMKGAGTDEKTLTRIMVSRSEIDLLNIRREFIEKYDKSLHQAIEGDTSGDFLKALLALCGGED
modifications: C-terminal His tag
notes: recombinant human annexin A6 protein with C-terminal HIS tag (5186-A6-050, R&D systems); mouse protein from Northwestern core in one cohort
In the case of B1, the “FM 4-64 dye uptake after laser injury” value in the assay on wildtype myofibers is given as “reduction”. Besides, in the assay with Anxa6^em1(GFP) myofibers, the “FM 4-64 dye uptake” value is on record as “reduction” and the “annexin A6GFP repair cap size” value is given as “smaller; also recorded: reduced”.
